Measurements published in patent US20240263208A1, “CYTOCHROME P450 ENZYME” (HYPHA DISCOVERY LTD., priority 2021, published 2024).

Legend:
Assay type in all cases: biochemical
[1] = Oxidase activity testing, lyophilised recombinant P450/ferredoxin SeuF08/ferredoxin reductase SCF15A against ambroxide; settings: for +16 Da (1.50 min) 253 m/z / +16 Da (1.60 min) 253 m/z / +16 Da (2.04 min) 253 m/z: oxidised ambroxide product; for +16 Da (1.50 min) 253 m/z / +16 Da (1.60 min) 253 m/z / +16 Da (2.04 min) 253 m/z / Ambroxide (2.22 min) 237 m/z: relative MS peak area; for Ambroxide (2.22 min) 237 m/z: remaining substrate, 0.1 mg/ml ambroxide, 27° C., 16-20 hours; for Average % conversion: substrate ambroxide, relative MS peak areas
Experimental: (§1) Lyophilised material of recombinant P450, ferredoxin and ferredoxin reductase proteins was made as described in Example 4 and reconstituted in high purity water to the original volume. Biocatalysis was performed with shaking incubation at 27° C. in the following conditions: 100 mM potassium phosphate pH 8.0, 5 mM MgCl2 (both present in the reconstituted enzyme preparation) and 0.1 mg/ml substrate compound such as ambroxide (Sigma-Aldrich, UK), carbamazepine (Sigma-Aldrich, UK), diclofenac (Sigma-Aldrich, UK), tivantinib (MedChemtronica, Sweden), clarithromycin (Tokyo Chemical Industry, Japan), sclareol (Sigma-Aldrich, UK), celecoxib (LC Laboratories, USA), buparvaquone (Sigma-Aldrich, UK), BIRB796 (MedChemExpress, USA), vanoxerine (CiVentiChem, USA), valsartan (Tokyo Chemical Industry, Japan), ruxolitinib (LC Laboratories, USA), perindopril (Selleckchem, USA), solifenacin (Key Organics, UK), 7-ethoxycoumarin (Tokyo Chemical Industry, Japan), tofacitinib (LC Laboratories, USA), ebastine (Key Organics, UK), efavirenz (Key Organics, UK), propanalol (Sigma-Aldrich, UK) and tolbutamide (Key Organics, UK).
(§2) Concentrations of P450, ferredoxin and ferredoxin reductase were as extracted (Example 4). Reactions were initiated by addition of 10× stock of cofactor mixture (50 mM G6P, 10 mM NADP+, 10 UN/ml G6PDH) to provide a final volume of e.g., 10 μl to 90 μl for 100 μl total reaction volumes. After 16-20 hours, reactions were extracted with an equal volume of acetonitrile, centrifuged to remove precipitated proteins and conversion assessed by UPLC-MS analysis.
(§3) UPLC Data were Obtained as Follows: • Column: Acquity UPLC BEH Shield RP18 1.7 μm 2.1 mm i.d. 50 mm length • Solvents: H2O, B: Acetonitrile, both with 0.1% Formic acid • Flow rate: 1.0 ml/min • Detector: Waters Acquity UPLC PDA (UV-Vis detection) and Waters Acquity UPLC QDA (MS)
(§4) To confirm the identities of reaction products where known, their chromatographic retention time, mass and ultraviolet spectra were compared with those of authentic metabolite standards.
Representative results for the % conversions of ambroxide to oxidised (+16 Da) products for single point mutants at position T109 are shown in Table 2 below.

[2] = Oxidase activity testing against carbamazepine
Experimental: as §1, §2, §3, §4
Representative results for the % conversions of carbamazepine to oxidised (+16 Da) products for single point mutants at position L198 are shown in Table 3 below.

[3] = Oxidase activity testing against sclareol; settings: substrate Sclareol, UPLC-MS UV or MS peak areas
How it was run: (§5)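 Reconstituted recombinant P450 with ferredoxin and ferredoxin reductase was incubated with 0.1 mg/ml substrate in 100 mM potassium phosphate pH 8.0, 5 mM MgCl2 at 27° C with shaking. Reactions were started with a G6P/NADP+/G6PDH cofactor mix, run 16-20 hours, acetonitrile-quenched, and % conversion measured by UPLC-MS.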

[4] = Oxidase activity testing against celecoxib; settings: substrate Celecoxib
How it was run: as §5

[5] = Oxidase activity testing against buparvaquone; settings: substrate Buparvaquone
How it was run: as §5

[6] = Oxidase activity testing against BIRB796; settings: substrate BIRB796
How it was run: as §5

[7] = Oxidase activity testing against vanoxerine; settings: substrate Vanoxerine
How it was run: as §5

[8] = Oxidase activity testing against valsartan; settings: substrate Valsartan
How it was run: as §5

[9] = Oxidase activity testing against ruxolitinib; settings: substrate Ruxolitinib
How it was run: as §5

[10] = Oxidase activity testing against perindopril; settings: substrate Perindopril
How it was run: as §5

[11] = Oxidase activity testing against solifenacin; settings: substrate Solifenacin
How it was run: as §5

[12] = Oxidase activity testing against 7-ethoxycoumarin; settings: substrate 7-ethoxycoumarin
How it was run: as §5

[13] = Oxidase activity testing against tofacitinib; settings: substrate Tofacitinib
How it was run: as §5

[14] = Oxidase activity testing against ebastine; settings: substrate Ebastine
How it was run: as §5

[15] = Oxidase activity testing against efavirenz; settings: substrate Efavirenz
How it was run: as §5

[16] = Oxidase activity testing against clarithromycin; settings: substrate Clarithromycin
How it was run: as §5

[17] = Oxidase activity testing against propanalol; settings: substrate Propanalol
How it was run: as §5

[18] = Oxidase activity testing against tolbutamide; settings: for Average % conversion: substrate Tolbutamide
How it was run: as §5

B1: SeuC10: native CYP450 from Streptomyces eurythermus NRRL 2539, SEQ ID NO: 2 (protein, listed as Streptomyces eurythermus)
chain: MKIGTTHLTRLRGLSMTELTDITGPAAQAETVAFPQDRTCPYHPPTGYDPLRDGRPLSRVTLYDGREVWLVTAQATARALLADPRLSTDRRRDGFPVPTPRFAAGRDRTLALLGLDDPEHHRQRRLLIPSFTLKRATAQRPWIQRIVDELLDAMIARGPVADLVSAFALPVPSMVICELLGVPYADHEFFEEQSRRLLRGPTGADTTDARDRLEAYLGDLIDAKAKEAEPGDGILDDLVHNRLRAGELDRSVLVSLAVILLVAGHETTANMISLGTYTLLQHPERLAELRADPSLLPAVVEELLRMLSIAEGLQRLALEDIEIDGITIRAGEGVLFSTSVINRDTAVYEDPDDLDFHRADRHHVAFGFGIHQCLGQNLARAELEIALGSLFTRLPGLRLAAPAEEIPFKPGDTVQGMLELPVTW
- +16 Da (1.50 min) 253 m/z [1]: 72.2%
- +16 Da (1.60 min) 253 m/z [1]: 5.0%
- +16 Da (2.04 min) 253 m/z [1]: 0.0%
- reaction products from ambroxide (in words) ([1]; products at 1.50, 1.61 and 2.04 minutes): produce the product at 1.50 as the major product
- Ambroxide (2.22 min) 237 m/z [1]: 22.8%
- Average % conversion [1]: 77.2%
- +16 Da (1.18 min) 253 m/z ([2]; 2-hydroxycarbamazepine, relative MS peak area): 0.0%
- +16 Da (1.14 min) 253 m/z ([2]; carbamazepine epoxide, relative MS peak area): 43.6%
- reaction products from carbamazepine (in words) ([2]; new product at 1.18 minutes identified as 2-hydroxycarbamazepine, epoxide at 1.14 minutes): carbamazepine epoxide as the only reaction product
- Parent (1.31 min) 237 m/z ([2]; remaining carbamazepine, relative MS peak area, 0.1 mg/ml, 27° C., 16-20 hours): 56.4%
- Average % conversion ([2]; substrate carbamazepine, relative MS peak areas): 43.6%
- Average % conversion ([3]; Batch 1): 38.5%
- Average % conversion ([3]; Batch 2): 35.5%
- Average % conversion ([4]; Batch 1): 29.4%
- Average % conversion ([4]; Batch 2): 22.2%
- Average % conversion ([5]; Batch 1): 23.5%
- Average % conversion ([5]; Batch 2): 32.9%
- Average % conversion ([6]; Batch 1): 83.1%
- Average % conversion ([6]; Batch 2): 78.8%
- Average % conversion ([7]; Batch 1): 75.8%
- Average % conversion ([7]; Batch 2): 65.8%
- Average % conversion ([8]; Batch 1): 20.1%
- Average % conversion ([8]; Batch 2): 20.8%
- Average % conversion ([9]; Batch 1): 80.9%
- Average % conversion ([9]; Batch 2): 98.6%
- Average % conversion ([10]; Batch 1): 30.9%
- Average % conversion ([10]; Batch 2): 32.7%
- Average % conversion ([11]; Batch 1): 5.3%
- Average % conversion ([11]; Batch 2): 7.2%
- Average % conversion ([12]; Batch 1): 22.9%
- Average % conversion ([12]; Batch 2): 23.3%
- Average % conversion ([13]; Batch 1): 36.7%
- Average % conversion ([13]; Batch 2): 51.6%
- Average % conversion ([14]; Batch 1): 8.8%
- Average % conversion ([14]; Batch 2): 4.5%
- Average % conversion ([15]; Batch 1): 0%
- Average % conversion ([15]; Batch 2): 0%
- Average % conversion ([16]; Batch 1): 0%
- Average % conversion ([16]; Batch 2): 0%
- Average % conversion ([17]; Batch 1): 0%
- Average % conversion ([17]; Batch 2): 0%
- Average % conversion ([18]; Batch 1): 32.2%
- Average % conversion ([18]; Batch 2): 37.7%

B2: SeuC10M2: P450SeuC10 with T109A mutation, SEQ ID NO: 8 (protein)
chain: MKIGTTHLTRLRGLSMTELTDITGPAAQAETVAFPQDRTCPYHPPTGYDPLRDGRPLSRVTLYDGREVWLVTAQATARALLADPRLSTDRRRDGFPVPTPRFAAGRDRALALLGLDDPEHHRQRRLLIPSFTLKRATAQRPWIQRIVDELLDAMIARGPVADLVSAFALPVPSMVICELLGVPYADHEFFEEQSRRLLRGPTGADTTDARDRLEAYLGDLIDAKAKEAEPGDGILDDLVHNRLRAGELDRSVLVSLAVILLVAGHETTANMISLGTYTLLQHPERLAELRADPSLLPAVVEELLRMLSIAEGLQRLALEDIEIDGITIRAGEGVLFSTSVINRDTAVYEDPDDLDFHRADRHHVAFGFGIHQCLGQNLARAELEIALGSLFTRLPGLRLAAPAEEIPFKPGDTVQGMLELPVTW
modifications: SeuC10M2
- +16 Da (1.50 min) 253 m/z [1]: 85.1%
- +16 Da (1.60 min) 253 m/z [1]: 7.0%
- +16 Da (2.04 min) 253 m/z [1]: 0.0%
- Ambroxide (2.22 min) 237 m/z [1]: 6.8%
- Average % conversion [1]: 93.2%
- Average % conversion ([3]; Batch 1): 36.5%
- Average % conversion ([4]; Batch 1): 24.7%
- Average % conversion ([5]; Batch 1): 28.7%
- Average % conversion ([6]; Batch 1): 29.5%
- Average % conversion ([7]; Batch 1): 87.2%
- Average % conversion ([8]; Batch 1): 17.6%
- Average % conversion ([9]; Batch 1): 92.8%
- Average % conversion ([10]; Batch 1): 30.7%
- Average % conversion ([11]; Batch 1): 7.2%
- Average % conversion ([12]; Batch 1): 32.4%
- Average % conversion ([13]; Batch 1): 47.1%
- Average % conversion ([14]; Batch 1): 6.8%
- Average % conversion ([15]; Batch 1): 0.9%
- Average % conversion ([16]; Batch 1): 0%
- Average % conversion ([17]; Batch 1): 0%
- conversion of tolbutamide compared to wild-type (in words) [18]: significantly increased conversion
- Average % conversion ([18]; Batch 1): 52.3%
